Assays:
[1] = biological target: Human Rb construct (residues 53-787, delta245-267, delta582-642, S780A), un-phosphorylated (human) (UniProt P06400); test: isothermal titration calorimetry; E2F (~1 mM) titrated into ~50 uM un-phosphorylated Rb
[2] = biological target: Human Rb construct (residues 53-787, delta245-267, delta582-642, S780A), phosphorylated with recombinant Cdk (human) (UniProt P06400); test: isothermal titration calorimetry; E2F (~1 mM) titrated into ~50 uM phosphorylated Rb
[3] = biological target: Phosphorylated human Rb construct (residues 53-787, delta245-267, delta582-642, S780A) saturated with the … peptide (human) (UniProt P06400); test: isothermal titration calorimetry; E2F (~1 mM) titrated into ~50 uM phosphorylated Rb first saturated with the … peptide
Chain of Phosphorylated human Rb construct (residues 53-787, delta245-267, delta582-642, S780A) saturated with the … peptide (human) (P06400 other isoform, or with tags, fused parts or gaps S780A S780A limits assumed): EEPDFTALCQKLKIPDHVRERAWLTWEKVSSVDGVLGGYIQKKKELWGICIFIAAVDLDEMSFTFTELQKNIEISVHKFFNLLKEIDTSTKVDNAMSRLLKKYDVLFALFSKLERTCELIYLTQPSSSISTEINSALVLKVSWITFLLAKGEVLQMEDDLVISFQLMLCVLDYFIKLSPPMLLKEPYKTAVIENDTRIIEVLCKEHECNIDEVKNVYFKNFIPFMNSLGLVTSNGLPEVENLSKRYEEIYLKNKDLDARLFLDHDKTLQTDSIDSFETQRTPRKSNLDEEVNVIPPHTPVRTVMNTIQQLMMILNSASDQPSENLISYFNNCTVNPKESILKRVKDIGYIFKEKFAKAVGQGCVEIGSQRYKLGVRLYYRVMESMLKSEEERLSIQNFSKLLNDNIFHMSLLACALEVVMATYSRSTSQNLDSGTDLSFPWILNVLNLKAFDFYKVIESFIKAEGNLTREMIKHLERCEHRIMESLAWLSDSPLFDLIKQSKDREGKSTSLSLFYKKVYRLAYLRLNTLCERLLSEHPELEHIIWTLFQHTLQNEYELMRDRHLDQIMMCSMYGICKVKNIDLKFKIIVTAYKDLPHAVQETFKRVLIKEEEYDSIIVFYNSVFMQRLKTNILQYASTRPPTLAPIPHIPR

Chain of Human Rb construct (residues 53-787, delta245-267, delta582-642, S780A), un-phosphorylated (human) (P06400 other isoform, or with tags, fused parts or gaps S780A S780A limits assumed): as above
Chain of Human Rb construct (residues 53-787, delta245-267, delta582-642, S780A), phosphorylated with recombinant Cdk (human) (P06400 other isoform, or with tags, fused parts or gaps S780A S780A limits assumed): as above

Substance: Human E2F1 transactivation domain (residues 380-727) (from UniProt Q01094 380-437)
- Kd [1]: 100 nM
- Kd [2]: 3000 nM
- Kd [3]: 700 nM
